From paper PMC4020579 (Biochemistry, 2014)

Assays:
[1] = Solubility of RPA32C in crystallization screening; type: physicochemical; details: all sparse matrix conditions examined, standard buffer conditions
[2] = molecular target: RPA32_(172–270), the previously reported RPA32C construct of the replication protein A 32 kDa subunit (UniProt P15927 172-270); experiment: ITC
[3] = molecular target: RPA32C, the optimized RPA32_(202–270) construct (C-terminal winged-helix domain of the RPA 32 kDa subunit) (UniProt P15927 202-270); experiment: NMR titration
Sequence of RPA32C, the optimized RPA32_(202–270) construct (C-terminal winged-helix domain of the RPA 32 kDa subunit) (P15927 202-270): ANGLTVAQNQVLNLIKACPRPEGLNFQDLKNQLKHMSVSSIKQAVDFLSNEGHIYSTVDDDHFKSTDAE

Sequence of RPA32_(172–270), the previously reported RPA32C construct of the replication protein A 32 kDa subunit (P15927 172-270): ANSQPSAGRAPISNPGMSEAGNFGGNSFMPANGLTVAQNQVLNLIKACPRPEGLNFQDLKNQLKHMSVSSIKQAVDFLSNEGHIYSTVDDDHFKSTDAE

Molecule: RPA32C: optimized C-terminal winged-helix domain construct of the RPA 32 kDa subunit, residues 202–270
- concentration at which soluble [1]: ≥ 40000 µg/mL

Molecule: MSLPLTEEQRKKIEENRQKALARRAEKLLAEQ (peptide, UniProt Q9NZC9 1-32, looked up) [SMARCAL1_(1–32), SMARCAL1 residues 1–32 containing the RPA binding motif (RBM)]
- Kd [2]: 2.5 ± 0.1 µM

Molecule: EEQRKKIEENRQKALARRAEKLLAEQ (peptide, UniProt Q9NZC9 7-32, looked up) [SMARCAL1_(7–32) peptide]
- binding result [3]: binds
